Paper doi:10.1101/340778 (bioRxiv, 2018)

Target: J-base Binding Protein 1 (JBP1) (Leishmania tarentolae (assumed; species …, UniProt Q9U6M1)
Test: SPR

Sequence of J-base Binding Protein 1 (JBP1) (Leishmania tarentolae (Q9U6M1 whole entry): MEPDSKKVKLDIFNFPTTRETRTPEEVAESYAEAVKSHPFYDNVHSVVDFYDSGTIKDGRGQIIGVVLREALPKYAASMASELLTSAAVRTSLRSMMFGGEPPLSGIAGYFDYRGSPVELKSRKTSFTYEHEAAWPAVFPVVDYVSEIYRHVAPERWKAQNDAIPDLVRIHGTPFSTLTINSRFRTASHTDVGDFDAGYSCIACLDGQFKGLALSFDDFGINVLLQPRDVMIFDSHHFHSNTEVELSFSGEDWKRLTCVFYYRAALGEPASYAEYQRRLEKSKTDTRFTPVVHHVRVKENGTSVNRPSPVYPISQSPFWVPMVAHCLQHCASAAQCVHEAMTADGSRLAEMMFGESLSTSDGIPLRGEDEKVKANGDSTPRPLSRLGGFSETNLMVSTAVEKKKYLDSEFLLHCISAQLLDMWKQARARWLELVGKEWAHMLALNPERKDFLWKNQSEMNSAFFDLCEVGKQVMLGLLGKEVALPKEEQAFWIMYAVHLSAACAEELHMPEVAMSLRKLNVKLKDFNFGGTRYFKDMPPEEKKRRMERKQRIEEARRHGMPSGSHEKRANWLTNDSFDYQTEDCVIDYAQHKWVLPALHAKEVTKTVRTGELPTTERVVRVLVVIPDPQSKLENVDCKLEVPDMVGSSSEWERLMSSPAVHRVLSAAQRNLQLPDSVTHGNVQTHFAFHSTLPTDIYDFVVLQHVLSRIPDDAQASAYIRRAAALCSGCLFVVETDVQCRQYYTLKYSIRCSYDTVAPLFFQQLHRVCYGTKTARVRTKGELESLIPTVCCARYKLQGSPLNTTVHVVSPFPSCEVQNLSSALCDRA

B1: nanobody-6 (Nb6) (VHH)
VHH: QVQLVESGGGLVQAGGSLRLSCAASGSFFSINDMGWYRQAPGKQRELVAVISSGGSTNYADSVEGRSTISSDNAKNTVYLQLSSLKPEDTAVYYCNANVRLREYRTTSYHYWGQGTQVTVSS
- Kd: 30 nM
